Legend:
in vivo = details: C57BL/6, mouse, total radioactivity, Tumor-to-tissue ratio
Procedure: (§1) Mice bearing MC38 xenografts were randomly divided into 10 groups (n = 4). The mice in five groups were administered 0.74 MBq/20 µCi of ^177Lu-Palm-3PRGD2 and sacrificed at 1, 4, 12, 24, and 72 h p.i. The mice on one group was injected with 0.74 MBq/20 µCi of ^177Lu-Palm-3PRGD2 and 500 μg (242 nmol) 3PRGD2 as a blocking agent and sacrificed at 1 h p.i. […] Tumors and major organs were harvested, weighed and measured for radioactivity using a γ-counter. The organ uptake was calculated as the percentage injected activity per gram (%IA/g). The effective absorbed dose in humans estimated from mouse biodistribution data by using a dedicated software (OLINDA 1.0).

MC38 tumor-bearing mice = assay: in vivo; details: mouse
Procedure: as §1

[1] = set-up: species or system C57BL/6 mice; details: mouse, in vivo
Procedure: Female KM mice were randomly divided into three groups (n = 5). […] Blood samples obtained from the canthus vein were collected at different time points post injection (p.i.), weighed, and evaluated using a γ-counter. The results are presented as the percentage injected activity per gram (%IA/g). Nonlinear regression (curve fit) followed by two phase decay was performed using GraphPad Prism version 9.0.0 for Windows, GraphPad Software, San Diego, CA, USA, www.graphpad.com (accessed on 22 May 2022). And then the half-lives values were calculated and determined. Blood clearance studies were performed in normal KM mice. […] Blood clearance studies were also performed in C57BL/6 mice.

physchem = format: physicochemical
Procedure: Briefly, the radiopharmaceuticals were prepared and purified with Sep-Pak-C18 cartridges and then dissolved in a mixed solution of 5 mL n-octanol and 5 mL PBS. After vortexing for 1 h, the mixture was centrifuged at 10,000 rpm for 10 min. Samples (100 μL, n = 4) from the n-octanol and PBS components were collected and counted using a γ-counter. The […] were calculated as the logarithm of the n-octanol/PBS ratio.

CCCCCCCCCCCCCCCC(=O)N[C@@H](CCC(=O)NCCCC[C@H](NC(=O)CN1CCN(CC(=O)O)CCN(CC(=O)O)CCN(CC(=O)O)CC1)C(=O)NCCOCCOCCOCCOCCC(=O)N[C@@H](CCC(=O)NCCOCCOCCOCCOCCC(=O)NCCCC[C@@H]1NC(=O)[C@@H](Cc2ccccc2)NC(=O)[C@H](CC(=O)O)NC(=O)CNC(=O)[C@H](CCCNC(=N)N)NC1=O)C(=O)NCCOCCOCCOCCOCCC(=O)NCCCC[C@@H]1NC(=O)[C@@H](Cc2ccccc2)NC(=O)[C@H](CC(=O)O)NC(=O)CNC(=O)[C@H](CCCNC(=N)N)NC1=O)C(=O)O [^177Lu-Palm-3PRGD2, [^177Lu]Lu-DOTA-Palm-3PRGD2, metal not drawn]
tissue to tissue ratio at 4 h (in vivo; 0.74 MBq, Bone): 6.66
tissue to tissue ratio at 12 h (in vivo; 0.74 MBq, Bone): 7.14
tissue to tissue ratio at 24 h (in vivo; 0.74 MBq, Bone): 5.61
tissue to tissue ratio at 72 h (in vivo; 0.74 MBq, Bone): 2.96
tissue to tissue ratio at 1 h (in vivo; 0.74 MBq, Brain): 27.9
tissue to tissue ratio at 4 h (in vivo; 0.74 MBq, Brain): 55.3
tissue to tissue ratio at 12 h (in vivo; 0.74 MBq, Brain): 52.5
tissue to tissue ratio at 24 h (in vivo; 0.74 MBq, Brain): 42.5
tissue to tissue ratio at 72 h (in vivo; 0.74 MBq, Brain): 19.9
tissue to tissue ratio at 1 h (in vivo; 0.74 MBq, Heart): 2.59
tissue to tissue ratio at 4 h (in vivo; 0.74 MBq, Heart): 6.12
tissue to tissue ratio at 12 h (in vivo; 0.74 MBq, Heart): 7.11
tissue to tissue ratio at 24 h (in vivo; 0.74 MBq, Heart): 6.41
tissue to tissue ratio at 72 h (in vivo; 0.74 MBq, Heart): 3.86
tissue to tissue ratio at 1 h (in vivo; 0.74 MBq, Intestine): 0.77
tissue to tissue ratio at 4 h (in vivo; 0.74 MBq, Intestine): 1.62
tissue to tissue ratio at 12 h (in vivo; 0.74 MBq, Intestine): 1.06
tissue to tissue ratio at 24 h (in vivo; 0.74 MBq, Intestine): 1
tissue to tissue ratio at 72 h (in vivo; 0.74 MBq, Intestine): 0.45
tissue to tissue ratio at 1 h (in vivo; 0.74 MBq, Kidney): 0.82
tissue to tissue ratio at 4 h (in vivo; 0.74 MBq, Kidney): 1.42
tissue to tissue ratio at 12 h (in vivo; 0.74 MBq, Kidney): 1.2
tissue to tissue ratio at 24 h (in vivo; 0.74 MBq, Kidney): 1.01
tissue to tissue ratio at 72 h (in vivo; 0.74 MBq, Kidney): 0.56
tissue to tissue ratio at 1 h (in vivo; 0.74 MBq, Liver): 1.06
tissue to tissue ratio at 4 h (in vivo; 0.74 MBq, Liver): 1.02
tissue to tissue ratio at 12 h (in vivo; 0.74 MBq, Liver): 1.05
tissue to tissue ratio at 24 h (in vivo; 0.74 MBq, Liver): 1.3
tissue to tissue ratio at 72 h (in vivo; 0.74 MBq, Liver): 0.89
tissue to tissue ratio at 1 h (in vivo; 0.74 MBq, Lung): 1.87
tissue to tissue ratio at 4 h (in vivo; 0.74 MBq, Lung): 3.98
tissue to tissue ratio at 12 h (in vivo; 0.74 MBq, Lung): 3.86
tissue to tissue ratio at 24 h (in vivo; 0.74 MBq, Lung): 4.89
tissue to tissue ratio at 72 h (in vivo; 0.74 MBq, Lung): 3.78
tissue to tissue ratio at 1 h (in vivo; 0.74 MBq, Muscle): 7.33
tissue to tissue ratio at 4 h (in vivo; 0.74 MBq, Muscle): 17.5
tissue to tissue ratio at 12 h (in vivo; 0.74 MBq, Muscle): 18
tissue to tissue ratio at 24 h (in vivo; 0.74 MBq, Muscle): 17.9
tissue to tissue ratio at 72 h (in vivo; 0.74 MBq, Muscle): 8.33
tissue to tissue ratio at 1 h (in vivo; 0.74 MBq, Spleen): 2.02
tissue to tissue ratio at 4 h (in vivo; 0.74 MBq, Spleen): 2.56
tissue to tissue ratio at 12 h (in vivo; 0.74 MBq, Spleen): 1.4
tissue to tissue ratio at 24 h (in vivo; 0.74 MBq, Spleen): 1.35
tissue to tissue ratio at 72 h (in vivo; 0.74 MBq, Spleen): 0.7
tissue to tissue ratio at 1 h (in vivo; 0.74 MBq, Stomach): 2.57
tissue to tissue ratio at 4 h (in vivo; 0.74 MBq, Stomach): 4.06
tissue to tissue ratio at 12 h (in vivo; 0.74 MBq, Stomach): 3.84
tissue to tissue ratio at 24 h (in vivo; 0.74 MBq, Stomach): 4.74
tissue to tissue ratio at 72 h (in vivo; 0.74 MBq, Stomach): 4.25
tissue to tissue ratio at 1 h (in vivo; Blood): 0.25
tissue to tissue ratio at 1 h (in vivo; Bone): 2.51
tissue to tissue ratio at 1 h (in vivo; Brain): 14.8
tissue to tissue ratio at 1 h (in vivo; Heart): 1.32
tissue to tissue ratio at 1 h (in vivo; Intestine): 0.96
tissue to tissue ratio at 1 h (in vivo; Kidney): 0.69
tissue to tissue ratio at 1 h (in vivo; Liver): 1.19
tissue to tissue ratio at 1 h (in vivo; Lung): 0.71
tissue to tissue ratio at 1 h (in vivo; Muscle): 3.53
tissue to tissue ratio at 1 h (in vivo; Spleen): 1.61
tissue to tissue ratio at 1 h (in vivo; Stomach): 1.64
AUC0h→72h in MC38 tumor (MC38 tumor-bearing mice): 1031.0 ± 97.25 % IA/g·h
AUC0h→72h in blood (MC38 tumor-bearing mice): 104.5 ± 7.98 % IA/g·h
AUC0h→72h in kidney (MC38 tumor-bearing mice): 1087.0 ± 62.73 % IA/g·h
AUC0h→72h in liver (MC38 tumor-bearing mice): 915.6 ± 74.74 % IA/g·h
Half-Life (T1/2α) [1]: 2.08 min
Half-Life (T1/2β) [1]: 63.71 min
logD (physchem): -1.25 ± 0.07

Reference: PMC9321335, “Palmitic Acid-Conjugated Radiopharmaceutical for Integrin αvβ3-Targeted Radionuclide Therapy” (Pharmaceutics, 2022)
